# Substitutions are numbered along the chain they refer to.
# B1: mAb01-9978 (antibody, V domains shown)
# VH: EVQLVESGGGLVQPGRSLRLSCAASGFTFHDYAMHWVRQVPGKGLEWVSGISWKGDIGGYVDSVKGRFTISRDNEKNSLYLQMNSLRAEDTALYYCVKSYGSGSFYNAFDSWGQGTLVTVSS
# VL: DIQMTQSPSTLSASVGDRVTITCRASQSISSWLAWYQQKPGKAPKLLIYKASRLERGTPSRFSGSGSGTEFSLTISSLQPDDFATYYCLEYSSYIRTFGQGTKVEIK
# notes: Bivalent IgG
# B2: mAb01-9994 (antibody, V domains shown)
# VH: B1 VH
# VL: B1 VL with L46F, E55D
# notes: Bivalent IgG
# B3: mAb01-9985 (antibody, V domains shown)
# VH: B1 VH with K54R, D62K, E75A
# VL: B1 VL with L46F, R53K
# notes: Bivalent IgG
# B4: mAb01-9933 (antibody, V domains shown)
# VH: B1 VH with R19K, H30D, E75A, M83L, V97A
# VL: B1 VL with V15A, R18E, R53K, E55D, T58V, S77D
# notes: Bivalent IgG
# B5: bimAb05-2115 (bispecific antibody, V domains shown)
# VH 1: B1 VH
# VL 1: B1 VL
# VH 2: EVQLVQSGAEVKKPGESLRISCKGSGYSFSTSWISWVRQMPGKGLEWMGMIDPSDSYTSYSPSFQGHVTISADKSISTAYLQWSSLKASDTAMYYCARLHYYNSEEFDVWGQGTMVTVSS
# VL 2: EIVLTQSPGTLSLSPGERATLSCRASQSVSSSYLAWYQQKPGQAPRLLIYGQSSRTRGIPDRFSGSGSGTDFTLTISRLEPEDFAVYYCQQYGDSQLFTFGQGTKLEIK
# B6: bimAb05-3755 (bispecific antibody, V domains shown)
# VH 1: B1 VH
# VL 1: B1 VL with L46F, E55D
# VH 2: B5 VH 2 with S30T, S35V, Y57F, N103H, M115L
# VL 2: B5 VL 2 with Q52A, T56A, Y92F, D94S, Q96R
# B7: 224F3 (mAb01-1582) (antibody, V domains shown)
# VH: QVQMQQSGAELVKPGASVKLSCKASGYTFTSQDINWVRQRPEQGLEWIGWIFPGDGSTKYNEKLKGKATLTTDKSSSTAFMQLSRLTSEDSAVYFCARSAYYRYDGSYYYAMDYWGQGTSVTVSS
# VL: QIVLTQSPAIMSASLGEEITLTCSASSSVSYMLWYQQKSGTSPKLLIYTTSNLASGVPSRFSGTGSGTFYSLTISSVEAEDAADYYCHQWSSYPRTFGGGTKLEIKR
# B8: mAb01-8913 (antibody, V domains shown)
# VH: B5 VH 2 with S35V, Y57F, M115L
# VL: B5 VL 2 with P15A, Q52A, T56A, Y92F, D94S, Q96R
# notes: Bivalent IgG
# B9: mAb01-9772 (antibody, V domains shown)
# VH: B5 VH 2
# VL: B5 VL 2
# notes: Bivalent IgG
# Biological target: T1, human plasma-derived Factor IXa (human, UniProt P00740 47-191; P00740 227-461)
# T1 construct: also called FIXa; hFIXa
# T1 sequence (P00740 47-191, chain 1 of 2): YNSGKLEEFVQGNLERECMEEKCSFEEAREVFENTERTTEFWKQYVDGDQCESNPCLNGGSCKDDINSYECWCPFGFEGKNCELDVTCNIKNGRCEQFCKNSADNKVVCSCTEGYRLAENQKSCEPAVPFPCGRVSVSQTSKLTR
# T1 sequence (P00740 227-461, chain 2 of 2): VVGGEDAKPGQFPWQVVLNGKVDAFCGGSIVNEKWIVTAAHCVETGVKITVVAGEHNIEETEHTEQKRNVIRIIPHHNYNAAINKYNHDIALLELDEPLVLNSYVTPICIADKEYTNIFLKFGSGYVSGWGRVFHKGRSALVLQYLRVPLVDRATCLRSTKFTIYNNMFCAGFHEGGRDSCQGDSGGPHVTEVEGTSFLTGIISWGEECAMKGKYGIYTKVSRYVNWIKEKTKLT
# Assay: ITC, 37 °C, pH 7.4, antibody injected into FIXa
# Description: (§1) Binding affinities for anti-FIX(a) and anti-FX(a) antibodies were measured by isothermal titration calorimetry […] by using a PEAQ-ITC calorimeter (Malvern, UK). The experiments were conducted at 37° C. and pH 7.4 using 25 mM Tris, 150 mM NaCl, 5 mM CaCl₂ (Tris-buffer). The sample cell (200 μl) contained either FIX, FIXa, or FX (macromolecule) and anti-FIX(a) and anti-FX(a) antibodies (ligand) were injected via a syringe (40 μl). All proteins were extensively dialyzed in Tris-buffer prior to measurements to secure matched buffer conditions. A thermal equilibration step was followed by a 60 s delay and subsequently an initial 0.2 μl injection of antibody, followed by 12-16 injections of 1.5-3 μl of antibody at an interval of 120 s. The stirring speed was maintained at 750 rpm, and the reference power is kept constant at 5-10 μcal/s. The heat associated with each injection of antibody is integrated and plotted against the molar ratio of ligand to macromolecule. The resulting isotherm is fitted to a one-site binding model to obtain the affinity (KD), stoichiometry (n), and enthalpy of interaction (ΔH) using the software provided by the manufacturer. Experiments were performed in at least duplicates.
row,Binder,Kd
1,B1,3570 nM
2,B2,1800 nM
3,B3,1260 nM
4,B4,1300 nM

# Biological target: T1, human plasma-derived Factor IXa
# Assay: cell-based or functional assay
Binder,"Maximum stimulation (fold), FXa generation assay with bispecific antibody; maximum at 7790 nM","Maximum stimulation (fold), FXa generation assay with bispecific antibody; maximum at 156 nM"
B5,14900 fold,
B6,,7570 fold

# Biological target: T2, human coagulation Factor IX (human, UniProt P00740 47-461)
# T2 construct: also called FIX
# T2 sequence (P00740 47-461 T194A limits assumed): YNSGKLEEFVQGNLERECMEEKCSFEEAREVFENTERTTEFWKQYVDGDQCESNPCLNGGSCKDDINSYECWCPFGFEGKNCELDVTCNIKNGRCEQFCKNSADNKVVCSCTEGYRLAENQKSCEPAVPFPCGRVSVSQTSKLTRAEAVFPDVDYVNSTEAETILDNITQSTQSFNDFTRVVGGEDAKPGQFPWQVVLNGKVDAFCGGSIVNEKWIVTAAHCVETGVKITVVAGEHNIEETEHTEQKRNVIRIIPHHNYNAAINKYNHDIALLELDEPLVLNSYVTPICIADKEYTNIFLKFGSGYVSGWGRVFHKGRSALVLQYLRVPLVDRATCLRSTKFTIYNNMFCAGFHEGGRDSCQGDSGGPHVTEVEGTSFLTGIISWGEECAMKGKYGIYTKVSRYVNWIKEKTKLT
# Assay: ITC, 37 °C, pH 7.4, antibody injected into FIX
# Description: as §1
row,Binder,Kd
1,B1,5600 nM
2,B2,2480 nM
3,B3,1920 nM
4,B4,2390 nM

# Biological target: T3, randomly biotinylated human FIXa (human, UniProt P00740 47-191; P00740 227-461, randomly biotinylated (NHS-d-biotin))
# T3 sequence (P00740 47-191, chain 1 of 2): as the sequence (P00740 47-191, chain 1 of 2) above
# T3 sequence (P00740 227-461, chain 2 of 2): as the sequence (P00740 227-461, chain 2 of 2) above
# Assay: BLI (Octet) in-tandem binning on biotinylated FIXa, 330 nM each; competitor (1st antibody): 224F3
# Description: (§2) Binning experiments were performed using Octet fortebio systems (HTX, Red384), based on the principle of Bio-Layer Interferometry, and equipped with streptavidin sensors (Pall Life Sciences, Menlo Park, CA), and using 8-channel mode. The binning assays were performed using a modified in-tandem setup. Briefly, (1) 370 nM randomly biotinylated human FIXa (biotinylated using NHS-d-biotin from Sigma H1759 and human FIXa obtained from Haematologic Technologies, Essex Junction, VT) was captured by streptavidin tips (dip and read biosensors Part NO:18-5019, Pall Life Sciences, Menlo Park, CA) for 5 minutes, (2) 330 nM of a first bivalent anti-FIXa antibody was then offered to the streptavidin tips, and incubated for 10 minutes until the biotinylated FIXa were fully saturated and (3) the tips were then offered to an equimolar solution of 330 nM of the first antibody and 330 nM of a second bivalent anti-FIXa antibody for 5 minutes. […] Unspecific binding were evaluated by including an unrelated human IgG4 bivalent antibody as first and second antibody control.
row,Binder,interferometry response value
1,B7,0.11
2,B1,0.24
3,B2,0.4
4,B3,0.44
5,B4,0.34

# Biological target: T3, randomly biotinylated human FIXa
# Assay: BLI (Octet) in-tandem binning on biotinylated FIXa, 330 nM each; competitor (1st antibody): hIgG4 (control)
# Description: as §2
row,Binder,interferometry response value
1,B7,2.11
2,B1,0.4
3,B2,0.75
4,B3,0.83
5,B4,0.59

# Biological target: T4, human coagulation Factor X (human, UniProt P00742 41-179; P00742 183-488)
# T4 construct: also called FX
# T4 sequence (P00742 41-179, chain 1 of 2): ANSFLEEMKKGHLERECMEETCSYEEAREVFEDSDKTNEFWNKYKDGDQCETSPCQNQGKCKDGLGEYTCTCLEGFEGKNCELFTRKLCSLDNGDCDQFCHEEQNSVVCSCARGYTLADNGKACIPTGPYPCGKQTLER
# T4 sequence (P00742 183-488, chain 2 of 2): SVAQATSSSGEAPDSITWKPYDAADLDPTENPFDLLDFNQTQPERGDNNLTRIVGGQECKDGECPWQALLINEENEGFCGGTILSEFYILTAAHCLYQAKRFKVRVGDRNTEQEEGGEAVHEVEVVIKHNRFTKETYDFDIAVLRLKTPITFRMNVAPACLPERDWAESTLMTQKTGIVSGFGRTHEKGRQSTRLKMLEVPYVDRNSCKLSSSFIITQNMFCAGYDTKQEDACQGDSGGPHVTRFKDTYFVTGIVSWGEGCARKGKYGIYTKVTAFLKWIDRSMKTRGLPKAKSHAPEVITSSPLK
# Assay: ITC, 37 °C, pH 7.4, antibody injected into FX
# Description: as §1
row,Binder,Kd
1,B8,350 nM
2,B9,1370 nM

# Biological target: T3, randomly biotinylated human FIXa
# Assay: BLI (Octet) in-tandem binning on biotinylated FIXa, 330 nM each; competitor (1st antibody): mAb01-2434
# Description: as §2
row,Binder,interferometry response value
1,B7,1.69
2,B1,0.34
3,B2,0.56
4,B3,0.6
5,B4,0.46

# Biological target: T3, randomly biotinylated human FIXa
# Assay: BLI (Octet) in-tandem binning on biotinylated FIXa, 330 nM each; competitor (1st antibody): mAb01-1767
# Description: as §2
row,Binder,interferometry response value
1,B7,1.6
2,B1,0.01
3,B2,0.01
4,B3,0.02
5,B4,0.02
